Source: publication PMC9785812 (Pharmaceutics, 2022)
Where two headings read alike, the source gives them in different places.

Legend:
[1] = Stability test in PBS (iTLC); assay type: physicochemical; conditions: 37 °C, up to 7 days, ~5 MBq in 250 µL added to 4.75 mL, iTLC-SG, 0.5 M citrate pH 5.5, gamma counter
Procedure: Radiolabeling was performed by adding up to 200 MBq of the ^153Sm radiolabeling solution to 20 nmol of the DOTA-TATE precursor dissolved in 0.15 M NaOAc buffer (pH 4.7) in a total reaction volume of 1 mL. The reaction vial was placed in a Thermomixer C (Eppendorf) to stir (500 rpm) and the mixture was heated to 95 °C for 15 min. After incubation, the radiolabeling yield was evaluated using thin-layer chromatography. An amount of 1–2 µL of the reaction mixture was spotted on a glass microfiber chromatography paper strip impregnated with silica gel (iTLC-SG, Agilent Technologies, Diegem, Belgium) that was eluted with a 0.5 M citrate solution (pH 5.5). After elution, the TLC papers were cut in half and the activity of the bottom and top part of the TLC paper was counted for 2 min each using an automated gamma counter.
After 1 h, 3 days, 5 days and 7 days, a 5 µL sample was spotted on the TLC system described above to identify the intact fraction.

[2] = Ex vivo biodistribution in healthy BALB/c mice; parameters: species or system mouse; conditions: mouse, iv; for tissue uptake dose at 1 h / tissue uptake dose at 24 h / tissue uptake dose at 72 h / SUV at 1 h / SUV at 4 h / SUV at 24 h / SUV at 72 h / tissue uptake dose at 4 h: total radioactivity
Procedure: Quantification of activity was performed with an automated gamma counter equipped with a 3-in NaI(Tl) detector coupled to a multichannel analyzer (2480 Wizard^2, Perkin Elmer, Zaventem, Belgium). The results were corrected for background signal, physical decay during counting and detector dead time.
All animal experiments were performed in compliance with the Ethical Committee Animal Studies of Medanex Clinic (EC MxCl 2020-163 and EC MxCl 2021-173), the Belgian laboratory animal legislation and the European Communities Council Directive of 22 September 2010 (2010/63/EU). Male BALB/c and NMRI nude mice were purchased from Janvier (Bio Services, Uden, The Netherlands) and housed in ventilated cages under standard laboratory conditions (12 h light/dark cycle) at the animal facility of SCK CEN. All animals had access to food and water ad libitum.
Additionally, similar biodistribution studies were performed with free (unlabeled) [^153Sm]SmCl3 to identify the organs with ^153Sm accumulation in case of release from the complex. […] The mice were sacrificed by an overdose pentobarbital (200 µL of 60 mg/mL) 1, 4, 24 and 72 h post-injection (p.i.) (n = 3–4 per time point). Blood was collected via cardiac puncture. Organs of interest were collected in tared tubes and weighed. The activity in the different organs was measured in the gamma counter. For the calculation of the total activity in the blood, bone and muscle, the masses were assumed to be, respectively, 7, 12 and 40% of the total body mass. Data were expressed as a percentage of injected activity (%IA) and standardized uptake value (SUV). %IA was calculated as (counts per min (cpm) in organ)/(IA converted to cpm) × 100. SUV was calculated as (activity in cpm in organ/weight of organ in g)/(IA/total body weight in g).

[3] = male, BALB/c, bone, read-out: Bone %IA
[4] = male, BALB/c, bone, read-out: Bone SUV
[5] = male, BALB/c, in vivo, read-out: Excreted %IA
[6] = male, BALB/c, intestines, read-out: Intestines %IA
[7] = male, BALB/c, kidneys, read-out: Kidneys SUV
[8] = male, BALB/c, liver, read-out: Liver SUV
[9] = male, BALB/c, muscle, read-out: Muscle %IA
[10] = male, BALB/c, pancreas, read-out: Pancreas %IA
[11] = male, BALB/c, spleen, read-out: Spleen %IA
[12] = male, BALB/c, spleen, read-out: Spleen SUV

C[C@@H](O)[C@H](NC(=O)[C@@H]1CSSC[C@H](NC(=O)[C@@H](Cc2ccccc2)NC(=O)CN2CCN(CC(=O)O)CCN(CC(=O)O)CCN(CC(=O)O)CC2)C(=O)N[C@@H](Cc2ccc(O)cc2)C(=O)N[C@H](Cc2c[nH]c3ccccc23)C(=O)N[C@@H](CCCCN)C(=O)N[C@@H]([C@@H](C)O)C(=O)N1)C(=O)O [[^153Sm]Sm-DOTA-TATE, metal not drawn]
radiochemical purity (intact fraction) [1]: > 99%
tissue uptake dose at 1 h ([2]; male, BALB/c, blood, read-out: Blood %IA): 0.7 ± 0.3 %ID
tissue uptake dose at 1 h [2, 3]: 0.8 ± 0.4 %ID
tissue uptake dose at 24 h [2, 3]: 0.7 ± 0.1 %ID
tissue uptake dose at 72 h [2, 3]: 0.6 ± 0.1 %ID
SUV at 1 h [2, 4]: 0.1 SUV
SUV at 4 h [2, 4]: 0.1 SUV
SUV at 24 h [2, 4]: 0.1 SUV
SUV at 72 h [2, 4]: 0.1 SUV
SUV at 1 h ([2]; male, BALB/c, heart, read-out: Heart SUV): 0.1 SUV
tissue uptake dose at 1 h [2, 5]: 82 ± 4.8 %ID
tissue uptake dose at 4 h [2, 5]: 90.2 ± 0.7 %ID
tissue uptake dose at 24 h [2, 5]: 96.6 ± 0.4 %ID
tissue uptake dose at 1 h [2, 6]: 0.6 ± 0.1 %ID
tissue uptake dose at 4 h [2, 6]: 0.5 %ID
tissue uptake dose at 72 h [2, 6]: 0.1 %ID
tissue uptake dose at 4 h ([2]; male, BALB/c, kidneys, read-out: Kidneys %IA): 3.2 ± 0.1 %ID
SUV at 24 h [2, 7]: 0.4 ± 0.1 SUV
SUV at 72 h [2, 7]: 0.1 SUV
tissue uptake dose at 4 h ([2]; male, BALB/c, liver, read-out: Liver %IA): 2.5 ± 0.8 %ID
SUV at 1 h [2, 8]: 0.4 ± 0.1 SUV
SUV at 24 h [2, 8]: 0.3 SUV
tissue uptake dose at 1 h ([2]; male, BALB/c, lungs, read-out: Lungs %IA): 0.1 %ID
SUV at 4 h ([2]; male, BALB/c, lungs, read-out: Lungs SUV): 0.1 SUV
tissue uptake dose at 4 h [2, 9]: 1.1 ± 0.5 %ID
tissue uptake dose at 24 h [2, 9]: 0.1 %ID
tissue uptake dose at 72 h [2, 9]: 0.1 %ID
SUV at 1 h ([2]; male, BALB/c, muscle, read-out: Muscle SUV): 0.6 ± 0.3 SUV
tissue uptake dose at 1 h [2, 10]: 0.1 %ID
tissue uptake dose at 4 h [2, 10]: 0.1 %ID
SUV at 4 h ([2]; male, BALB/c, pancreas, read-out: Pancreas SUV): 0.1 SUV
tissue uptake dose at 1 h [2, 11]: 0.3 ± 0.1 %ID
tissue uptake dose at 4 h [2, 11]: 0.3 %ID
tissue uptake dose at 24 h [2, 11]: 0.3 ± 0.1 %ID
tissue uptake dose at 72 h [2, 11]: 0.1 %ID
SUV at 24 h [2, 12]: 0.9 ± 0.3 SUV
SUV at 72 h [2, 12]: 0.3 ± 0.1 SUV
tissue uptake dose at 4 h ([2]; male, BALB/c, stomach, read-out: Stomach %IA): 0.1 ± 0.1 %ID
SUV at 1 h ([2]; male, BALB/c, whole blood, read-out: Blood SUV): 0.1 SUV
tissue uptake dose at 4 h ([2]; blood, 4 h p.i., healthy male BALB/c mice, ~2-3 MBq i.v., mean ± SD, n = 3-4, read-out: Blood %IA): 0.2 %ID
tissue uptake dose at 4 h ([2]; bone, 4 h p.i., healthy male BALB/c mice, ~2-3 MBq i.v., mean ± SD, n = 3-4, read-out: Bone %IA): 0.6 ± 0.2 %ID
Blood %IA ([2]; in vivo): 0.0 ± 0.0 %IA
Blood SUV ([2]; in vivo): 0.0 ± 0.0
Brain %IA ([2]; in vivo): 0.0 ± 0.0 %IA
Brain SUV ([2]; in vivo): 0.0 ± 0.0
Heart %IA ([2]; in vivo): 0.0 ± 0.0 %IA
Heart SUV ([2]; in vivo): 0.0 ± 0.0
Lungs %IA ([2]; in vivo): 0.0 ± 0.0 %IA
Lungs SUV ([2]; in vivo): 0.0 ± 0.0
Muscle SUV ([2]; in vivo): 0.0 ± 0.0
Pancreas %IA ([2]; in vivo): 0.0 ± 0.0 %IA
Pancreas SUV ([2]; in vivo): 0.0 ± 0.0
Stomach %IA ([2]; in vivo): 0.0 ± 0.0 %IA
tissue uptake dose at 72 h ([2]; in vivo, 72 h p.i., healthy male BALB/c mice, ~2-3 MBq i.v., mean ± SD, n = 3-4, read-out: Excreted %IA): 97.8 ± 0.2 %ID
tissue uptake dose at 24 h ([2]; intestines, 24 h p.i., healthy male BALB/c mice, ~2-3 MBq i.v., mean ± SD, n = 3-4, read-out: Intestines %IA): 0.2 %ID
tissue uptake dose at 24 h ([2]; kidneys, 24 h p.i., healthy male BALB/c mice, ~2-3 MBq i.v., mean ± SD, n = 3-4, read-out: Kidneys %IA): 0.7 ± 0.2 %ID
tissue uptake dose at 72 h ([2]; kidneys, 72 h p.i., healthy male BALB/c mice, ~2-3 MBq i.v., mean ± SD, n = 3-4, read-out: Kidneys %IA): 0.2 %ID
SUV at 4 h ([2]; liver, 4 h p.i., healthy male BALB/c mice, ~2-3 MBq i.v., mean ± SD, n = 3-4, read-out: Liver SUV): 0.5 ± 0.2 SUV
tissue uptake dose at 24 h ([2]; liver, 24 h p.i., healthy male BALB/c mice, ~2-3 MBq i.v., mean ± SD, n = 3-4, read-out: Liver %IA): 1.6 ± 0.2 %ID
tissue uptake dose at 72 h ([2]; liver, 72 h p.i., healthy male BALB/c mice, ~2-3 MBq i.v., mean ± SD, n = 3-4, read-out: Liver %IA): 1.2 ± 0.2 %ID
SUV at 72 h ([2]; liver, 72 h p.i., healthy male BALB/c mice, ~2-3 MBq i.v., mean ± SD, n = 3-4, read-out: Liver SUV): 0.2 SUV
SUV at 1 h ([2]; lungs, 1 h p.i., healthy male BALB/c mice, ~2-3 MBq i.v., mean ± SD, n = 3-4, read-out: Lungs SUV): 0.2 SUV
SUV at 4 h ([2]; muscle, 4 h p.i., healthy male BALB/c mice, ~2-3 MBq i.v., mean ± SD, n = 3-4, read-out: Muscle SUV): 0.2 ± 0.1 SUV
SUV at 1 h ([2]; pancreas, 1 h p.i., healthy male BALB/c mice, ~2-3 MBq i.v., mean ± SD, n = 3-4, read-out: Pancreas SUV): 0.2 SUV
SUV at 1 h ([2]; spleen, 1 h p.i., healthy male BALB/c mice, ~2-3 MBq i.v., mean ± SD, n = 3-4, read-out: Spleen SUV): 0.8 ± 0.2 SUV
SUV at 4 h ([2]; spleen, 4 h p.i., healthy male BALB/c mice, ~2-3 MBq i.v., mean ± SD, n = 3-4, read-out: Spleen SUV): 0.8 ± 0.2 SUV
tissue uptake dose at 1 h ([2]; stomach, 1 h p.i., healthy male BALB/c mice, ~2-3 MBq i.v., mean ± SD, n = 3-4, read-out: Stomach %IA): 0.2 %ID
time without leaching of 153Sm from the chelator: > 7 days
